T1: recombinant human activated FVII (FVIIa) (human, UniProt P08709 61-212; P08709 213-466, ten glutamate residues of the Gla domain may be gamma-carboxylated)
T1 construct: Two-chain form after cleavage between Arg152 and Ile153; light and heavy chain tethered by a disulfide bond; also called rFVIIa; Factor VIIa
T1 sequence 1: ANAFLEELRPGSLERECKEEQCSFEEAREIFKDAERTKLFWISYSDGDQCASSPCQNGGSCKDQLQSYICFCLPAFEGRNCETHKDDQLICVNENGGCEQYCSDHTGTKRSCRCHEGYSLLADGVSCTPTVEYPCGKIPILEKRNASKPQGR
T1 sequence 2: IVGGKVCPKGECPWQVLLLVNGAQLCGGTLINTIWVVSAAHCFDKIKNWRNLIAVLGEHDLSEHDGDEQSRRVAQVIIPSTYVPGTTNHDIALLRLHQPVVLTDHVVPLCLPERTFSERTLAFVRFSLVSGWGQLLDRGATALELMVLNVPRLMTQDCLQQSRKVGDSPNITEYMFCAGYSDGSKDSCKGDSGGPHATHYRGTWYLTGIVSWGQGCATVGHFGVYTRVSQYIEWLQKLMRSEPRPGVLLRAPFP

T2: sTLT1 (SEQ ID No: 3 with six histidine residues added at the C-terminus) (human, UniProt Q86YW5 16-162)
T2 construct: Soluble TLT-1 used in SPR
T2 sequence: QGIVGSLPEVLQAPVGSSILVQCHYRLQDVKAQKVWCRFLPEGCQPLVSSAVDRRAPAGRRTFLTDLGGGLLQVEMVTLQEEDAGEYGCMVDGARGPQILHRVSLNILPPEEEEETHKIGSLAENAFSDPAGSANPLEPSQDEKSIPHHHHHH


Key:
[1] = target: T1, recombinant human activated FVII (FVIIa); assay: dissociation constant listed with the stimulatory activities; value of the anti-FVII(a) arm mAb0873
[2] = target: T2, sTLT1 (SEQ ID No: 3 with six histidine …); assay: dissociation constant listed with the stimulatory activities; value of the anti-TLT-1 arm
[3] = target: T1, recombinant human activated FVII (FVIIa); assay: cell-based or functional assay

| Binder | Kd [1] [nM] | Kd [2] [nM] | Stimulation (fold): FXa generated by FVIIa with lipidated TLT-1 and 100 nM biAb, relative to free FVIIa [3] [fold] |
| --- | --- | --- | --- |
| biAb0099 (bispecific antibody, human IgG4 S228P, kappa, Duobody, constant domain type H (IgG4): anti-FVII(a) arm mAb0873, anti-TLT-1 arm mAb1047; also called mAb0873 x mAb1047) heavy 1: DVQLQESGPGLVKPSQTLSLTCTVSGYSISSDSAWSWIRQPPGKGLEWIGYIQYSGSTNYNPSLKSRVTISRDTSKNQFSLKLSSVTAADTAVYYCARSVNYYGNSFWVDPWGQGTLVTVSSASTKGPSVFPLAPCSRSTSESTAALGCLVKDYFPEPVTVSWNSGALTSGVHTFPAVLQSSGLYSLSSVVTVPSSSLGTKTYTCNVDHKPSNTKVDKRVESKYGPPCPPCPAPEFLGGPSVFLFPPKPKDTLMISRTPEVTCVVVDVSQEDPEVQFNWYVDGVEVHNAKTKPREEQFNSTYRVVSVLTVLHQDWLNGKEYKCKVSNKGLPSSIEKTISKAKGQPREPQVYTLPPSQEEMTKNQVSLTCLVKGFYPSDIAVEWESNGQPENNYKTTPPVLDSDGSFLLYSKLTVDKSRWQEGNVFSCSVMHEALHNHYTQKSLSLSLGK light 1: DIVMTQSPATLSVTAGDRVSLSCRASQGISDYLHWYQQKSHESPRLLIKYTSQPVSGIPSRFSGSGSGSEFTLSINSVEPEDVGVYYCQNGHSFPLTFGAGTKLELKRTVAAPSVFIFPPSDEQLKSGTASVVCLLNNFYPREAKVQWKVDNALQSGNSQESVTEQDSKDSTYSLSSTLTLSKADYEKHKVYACEVTHQGLSSPVTKSFNRGEC heavy 2: not shown light 2: DIVMTQTPLSSPVTLGQPASISCRSSQSLVHRNGNTYFHWLQQRPGQPPRLLIYKVSNRFSGVPDRFSGSGAGTDFTLKISRVEAEDVGVYYCSQSTHVPYTFGQGTKLEIKRTVAAPSVFIFPPSDEQLKSGTASVVCLLNNFYPREAKVQWKVDNALQSGNSQESVTEQDSKDSTYSLSSTLTLSKADYEKHKVYACEVTHQGLSSPVTKSFNRGEC | 600 | 75 | 5.8 |
| biAb0014 (bispecific antibody, human IgG4 S228P, kappa, also called mAb0873 x mAb1076) heavy 1: DVQLQESGPGLVKPSQTLSLTCTVSGYSISSDSAWSWIRQPPGKGLEWIGYIQYSGSTNYNPSLKSRVTISRDTSKNQFSLKLSSVTAADTAVYYCARSVNYYGNSFWVDPWGQGTLVTVSSASTKGPSVFPLAPCSRSTSESTAALGCLVKDYFPEPVTVSWNSGALTSGVHTFPAVLQSSGLYSLSSVVTVPSSSLGTKTYTCNVDHKPSNTKVDKRVESKYGPPCPPCPAPEFLGGPSVFLFPPKPKDTLMISRTPEVTCVVVDVSQEDPEVQFNWYVDGVEVHNAKTKPREEQFNSTYRVVSVLTVLHQDWLNGKEYKCKVSNKGLPSSIEKTISKAKGQPREPQVYTLPPSQEEMTKNQVSLTCLVKGFYPSDIAVEWESNGQPENNYKTTPPVLDSDGSFLLYSKLTVDKSRWQEGNVFSCSVMHEALHNHYTQKSLSLSLGK light 1: DIVMTQSPATLSVTAGDRVSLSCRASQGISDYLHWYQQKSHESPRLLIKYTSQPVSGIPSRFSGSGSGSEFTLSINSVEPEDVGVYYCQNGHSFPLTFGAGTKLELKRTVAAPSVFIFPPSDEQLKSGTASVVCLLNNFYPREAKVQWKVDNALQSGNSQESVTEQDSKDSTYSLSSTLTLSKADYEKHKVYACEVTHQGLSSPVTKSFNRGEC heavy 2: not shown light 2: DIVMTQTPLSSPVTLGQPASISCRSSQSLVHRQGNTYFHWLQQRPGQPPRLLIYKVSNRFSGVPDRFSGSGAGTDFTLKISRVEAEDVGVYYCSQSTHVPYTFGQGTKLEIKRTVAAPSVFIFPPSDEQLKSGTASVVCLLNNFYPREAKVQWKVDNALQSGNSQESVTEQDSKDSTYSLSSTLTLSKADYEKHKVYACEVTHQGLSSPVTKSFNRGEC | 600 | 2.9 | 8 |
| biAb0019 (bispecific antibody, human IgG4 S228P, kappa, also called mAb0873 x mAb1038) heavy 1: DVQLQESGPGLVKPSQTLSLTCTVSGYSISSDSAWSWIRQPPGKGLEWIGYIQYSGSTNYNPSLKSRVTISRDTSKNQFSLKLSSVTAADTAVYYCARSVNYYGNSFWVDPWGQGTLVTVSSASTKGPSVFPLAPCSRSTSESTAALGCLVKDYFPEPVTVSWNSGALTSGVHTFPAVLQSSGLYSLSSVVTVPSSSLGTKTYTCNVDHKPSNTKVDKRVESKYGPPCPPCPAPEFLGGPSVFLFPPKPKDTLMISRTPEVTCVVVDVSQEDPEVQFNWYVDGVEVHNAKTKPREEQFNSTYRVVSVLTVLHQDWLNGKEYKCKVSNKGLPSSIEKTISKAKGQPREPQVYTLPPSQEEMTKNQVSLTCLVKGFYPSDIAVEWESNGQPENNYKTTPPVLDSDGSFLLYSKLTVDKSRWQEGNVFSCSVMHEALHNHYTQKSLSLSLGK light 1: DIVMTQSPATLSVTAGDRVSLSCRASQGISDYLHWYQQKSHESPRLLIKYTSQPVSGIPSRFSGSGSGSEFTLSINSVEPEDVGVYYCQNGHSFPLTFGAGTKLELKRTVAAPSVFIFPPSDEQLKSGTASVVCLLNNFYPREAKVQWKVDNALQSGNSQESVTEQDSKDSTYSLSSTLTLSKADYEKHKVYACEVTHQGLSSPVTKSFNRGEC heavy 2: not shown light 2: DIVMTQTPLSSPVTLGQPASISCRSSQSLVHRPGNTYFHWLQQRPGQPPRLLIYKVSNRFSGVPDRFSGSGAGTDFTLKISRVEAEDVGVYYCSQSTHVPYTFGQGTKLEIKRTVAAPSVFIFPPSDEQLKSGTASVVCLLNNFYPREAKVQWKVDNALQSGNSQESVTEQDSKDSTYSLSSTLTLSKADYEKHKVYACEVTHQGLSSPVTKSFNRGEC | 600 | 19 | 9.4 |
| biAb0094 (bispecific antibody, human IgG4 S228P, kappa, Duobody, constant domain type H (IgG4): anti-FVII(a) arm mAb0873, anti-TLT-1 arm mAb1049; also called mAb0873 x mAb1049) heavy 1: DVQLQESGPGLVKPSQTLSLTCTVSGYSISSDSAWSWIRQPPGKGLEWIGYIQYSGSTNYNPSLKSRVTISRDTSKNQFSLKLSSVTAADTAVYYCARSVNYYGNSFWVDPWGQGTLVTVSSASTKGPSVFPLAPCSRSTSESTAALGCLVKDYFPEPVTVSWNSGALTSGVHTFPAVLQSSGLYSLSSVVTVPSSSLGTKTYTCNVDHKPSNTKVDKRVESKYGPPCPPCPAPEFLGGPSVFLFPPKPKDTLMISRTPEVTCVVVDVSQEDPEVQFNWYVDGVEVHNAKTKPREEQFNSTYRVVSVLTVLHQDWLNGKEYKCKVSNKGLPSSIEKTISKAKGQPREPQVYTLPPSQEEMTKNQVSLTCLVKGFYPSDIAVEWESNGQPENNYKTTPPVLDSDGSFLLYSKLTVDKSRWQEGNVFSCSVMHEALHNHYTQKSLSLSLGK light 1: DIVMTQSPATLSVTAGDRVSLSCRASQGISDYLHWYQQKSHESPRLLIKYTSQPVSGIPSRFSGSGSGSEFTLSINSVEPEDVGVYYCQNGHSFPLTFGAGTKLELKRTVAAPSVFIFPPSDEQLKSGTASVVCLLNNFYPREAKVQWKVDNALQSGNSQESVTEQDSKDSTYSLSSTLTLSKADYEKHKVYACEVTHQGLSSPVTKSFNRGEC heavy 2: not shown light 2: DIVMTQTPLSSPVTLGQPASISCRSSQSLVHRNGNTYFHWLQQRPGQPPRLLIYKVSNRFSGVPDRFSGSGAGTDFTLKISRVEAEDVGVYYCSQSTHVPYTFGQGTKLEIKRTVAAPSVFIFPPSDEQLKSGTASVVCLLNNFYPREAKVQWKVDNALQSGNSQESVTEQDSKDSTYSLSSTLTLSKADYEKHKVYACEVTHQGLSSPVTKSFNRGEC | 600 | 320 | 5.4 |

Source: patent publication US20220064329A1 (Novo Nordisk, published 2022)
